Here are results for 2 molecules from publication PMC7954794, “Protein context shapes the specificity of SH3 domain-mediated interactions in vivo” (Nature Communications, 2021).

No end group written: not given here.

This experiment addresses T1, NCK2 full-length recombinant protein (mouse, WT, tag-free) (mouse, UniProt O55033 1-380).
T1 construct: NCK2, mouse, full-length recombinant; also called WT NCK2; NCK2 1|2|3; source: E. coli BL21 (DE3), purified (GSTrap, TEV cleavage, HisTrap)
Description: fluorescence polarisation; 40 nM fluorescein isothiocyanate-conjugated peptide, NCK2 titrated (0-150 μM for CD3ε, 0-175 μM for PAK1); 17 mM Tris-HCl pH 8, 100 mM NaCl; one-site total binding model; triplicates. To be noted: both partners purified. In general terms: Polarisation of emitted light reports the rotation of a fluorescent probe.

T1 sequence (O55033 whole entry): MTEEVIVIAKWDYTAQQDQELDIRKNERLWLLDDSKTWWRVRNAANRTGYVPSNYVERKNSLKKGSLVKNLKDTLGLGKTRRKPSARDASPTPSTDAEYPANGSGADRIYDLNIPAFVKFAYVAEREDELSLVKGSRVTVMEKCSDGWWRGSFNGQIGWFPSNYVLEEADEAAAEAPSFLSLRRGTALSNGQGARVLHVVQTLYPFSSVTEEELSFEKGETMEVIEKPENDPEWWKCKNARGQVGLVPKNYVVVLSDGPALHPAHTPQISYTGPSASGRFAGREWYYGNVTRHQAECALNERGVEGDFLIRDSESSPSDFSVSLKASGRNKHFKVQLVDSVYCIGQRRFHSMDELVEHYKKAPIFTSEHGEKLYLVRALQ

B1: PAK1 peptide (DIQDKPPAPPMRNTST), fluorescein isothiocyanate-conjugated (peptide)
peptide: DIQDKPPAPPMRNTST
modifications: also: fluorescein isothiocyanate-conjugated (position not given here)
notes: peptide of PAK1, ligand of NCK2 SH3-2; also called PAK1 target peptide
Take B1: the binding result is listed as “binds”.

B2: Cd3ε peptide (RGQNKERPPPVPNPDY), fluorescein isothiocyanate-conjugated (peptide)
peptide: RGQNKERPPPVPNPDY
modifications: also: fluorescein isothiocyanate-conjugated (position not given here)
notes: peptide of CD3 epsilon, ligand of NCK2 SH3-1; also called CD3Ɛ
With B2, the binding result was “binds”.
